This note sets out measurements from paper PMC3823011.

Assay [1] deals with CmTic110B (Cyanidioschyzon merolae 10D). As to the kind of experiment: SEC + other: small-angle X-ray scattering.
Assay [2] concerns the target CmTic110C (Cyanidioschyzon merolae 10D). As to the kind of experiment: SEC + other: small-angle X-ray scattering.

On to CmTic110B (domain or fragment), for which the stoichiometry N in assay [1] is 2. In the case of CmTic110C (domain or fragment), the stoichiometry N in assay [2] was 2.
